{"source": "IntAct's records for PubMed 18325333", "molecular_target": "cdk5_mouse Cdk5 (UniProt P49615)"}
{"substance": "Cyclin-dependent kinase 5 activator 1 (Mus musculus), P61809 D288A", "values": [{"measurement": "effect of a mutation on the interaction", "value": "disrupting interaction"}]}
{"substance": "Cyclin-dependent kinase 5 activator 1 (Mus musculus), P61809 L289A", "values": [{"measurement": "effect of a mutation on the interaction", "value": "disrupting interaction"}]}
